Experimental data published in patent US7521536B2, “Glutamate transporter associated protein” (The Johns Hopkins University School of Medicine, priority 1999, dated 2009).

Key:
EAAT4 [1] = experiment: EAAT4 protein level after cycloheximide treatment, densitometry, HEK-rEAAT4 cells; type: cell-based, rat; details: 12 hrs after cycloheximide, GTRAP coexpressed; HEK-rEAAT4 alone 54±0.6%
Method: To examine changes in the cell surface levels of EAAT4, a cell membrane-impermeant biotinylation reagent to label cell surface proteins selectively. Biotinylation of cell surface proteins was performed as described in Duan et al. (Duan, et al., J. Neurosci. 19, 10193-10200 (1999)). SOD1 was used to control for total protein and to determine whether the biotinylation reagent labels proteins in the intracellular compartment. Densitometry was performed using the NIH Image program.
However it is also possible that there is increased expression of the cell's native gene. To address this question cells were treated 48 hrs after transfection with cycloheximide, an inhibitor of protein synthesis. […] In contrast, 81±2% and 74±1.7% of the EAAT4 protein remains after 12 hrs when GTRAP4-41 and GTRAP4-48 are coexpressed, respectively.

EAAT4 [2] = experiment: cerebellar glutamate uptake after intra-cisternal injection of HSV amplicon vectors; type: in vivo, rat; details: 48 hrs after intra-cisternal injection of HSV amplicon vector, vs control HSVlac
GST-EAAT4 = biological target: T1, GST-EAAT4 (Rattus norvegicus, UniProt O35921); experiment: in vitro binding to GST-EAAT4 fusion protein; details: myc-tagged protein from HEK 293T lysate; no binding to GST
T1 construct: Full-length EAAT4 was subcloned into the EcoR I site of the GST-fusion vector pGEX-6P-1 (Pharmacia); made in house; host or cells: E. coli BL21 (Novagen)
T1 sequence (O35921 1-561): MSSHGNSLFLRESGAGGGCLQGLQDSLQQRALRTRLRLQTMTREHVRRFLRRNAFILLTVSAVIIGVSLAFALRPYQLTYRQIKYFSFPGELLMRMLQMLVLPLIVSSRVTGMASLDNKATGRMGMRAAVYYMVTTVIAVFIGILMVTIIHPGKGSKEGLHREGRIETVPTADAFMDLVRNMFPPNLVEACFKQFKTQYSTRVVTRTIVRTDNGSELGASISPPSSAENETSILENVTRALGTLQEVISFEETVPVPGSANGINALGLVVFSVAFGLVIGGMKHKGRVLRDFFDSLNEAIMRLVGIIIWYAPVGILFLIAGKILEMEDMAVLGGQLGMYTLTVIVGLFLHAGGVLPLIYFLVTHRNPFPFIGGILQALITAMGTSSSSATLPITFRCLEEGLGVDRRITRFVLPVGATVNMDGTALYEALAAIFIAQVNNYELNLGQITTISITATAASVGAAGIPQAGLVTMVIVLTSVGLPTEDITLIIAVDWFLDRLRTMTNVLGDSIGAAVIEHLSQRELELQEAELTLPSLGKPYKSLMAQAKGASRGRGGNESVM
Method: Fusion proteins and in vitro binding. Full-length EAAT4 was subcloned into the EcoR I site of the GST-fusion vector pGEX-6P-1 (Pharmacia). Synthesis of recombinant proteins in BL21 cells (Novagen) was induced by 0.1 mM isopropyl β-D-thiogalactoside for 2 hrs at 30° C. and purified according to the protocol provided by the manufacturer (Pharmacia). HEK 293T cells were transfected with myc-tagged GTRAP4-41 or GTRAP4-48 and harvested in ice-cold immunoprecipitation (IP) buffer (phosphate buffered saline (pH 7.1), 5 mM EDTA, 1 mM sodium orthovanadate, 0.1 mM phenylmethylsulphonyl fluoride (PMSF), 0.3 μM aprotinin and 1% Triton X-100). The cellular lysate was incubated with GST or GST-EAAT4 immobilized on glutathione-Sepharose-4B, and washed to remove non-specifically bound proteins. Specifically bound proteins were eluted with 2×SDS loading buffer and analyzed by immunoblotting using an anti-c-myc antibody.
GTRAP4-41 and 4-48 Immunoprecipitation with Fusion Proteins. Full-length EAAT4 was subcloned into the EcoR I site of the GST-fusion vector pGEX-6P-1 (Pharmacia). […] Specifically bound proteins were eluted with 3×SDS loading buffer and analyzed by immunoblotting using an anti-c-myc antibody. […]

EAAT4 [3] = biological target: T2, EAAT4 (Rattus norvegicus, UniProt O35921); experiment: Na+-dependent L-[3H]-glutamate uptake in HEK-rEAAT4 cells transfected with GTRAPs; type: cell-based; set-up: expressed in transfected cells
T2 sequence (O35921 1-561): T1 sequence (O35921 1-561)
Method: To determine function relationships between GTRAPs and glutamate transporter proteins, sodium-dependent, glutamate transport activity was measured in HEK-rEAAT4 cells transfected with one or more interacting proteins.
To determine the effects of GTRAPs on glutamate transport function, Na+-dependent glutamate transport activity was measured in cells stably transfected with EAAT4, EAAC1, or another glutamate transporter protein and one or more interacter proteins. Stably transfected cells were grown in a monolayer on 6-well plates in MEM supplemented with 10% fetal bovine serum and L-glutamine. Assays were conducted when cells reached ˜80% confluency. The wells were pre-rinsed twice with 2 ml of ice-cold tissue buffer (50 mM Tris, 320 mM sucrose, pH 7.4). The cells were then incubated for 4 min at 37° C. with 1 ml of either sodium-(120 mM NaCl, 25 mM NaHCO3, 5 mM KCl, 2 mM CaCl2, 1 mM KH2PO4, 1 mM MgSO4, 10% glucose and […]) or choline-(120 mM choline Cl, 25 mM Tris-HCl pH 7.4, 5 mM KCl, 2 mM CaCl2, 1 mM KH2PO4, 1 mM MgSO4, 10% glucose and […]) containing buffer labeled with L-[^3H]Glu. Uptake was stopped by rinsing three times with 2 ml of ice-cold wash buffer (50 mM Tris pH 7.5 and 160 mM NaCl). Cells were solubilized in 1 ml of 0.1 N NaOH, and […] of lysate was analyzed for radioactivity in a scintillation counter. Na^+-dependent uptake was defined as the difference in radioactivity accumulated in Na^+-containing buffer and in choline-containing buffer. Protein content was measured and glutamate uptake calculated as nmole glutamate per mg of protein. In some cases, homogenates were examined for EAAT4, GTRAP4-41 and GTRAP 4-48 protein.
In an alternative protocol, HEK-rEAAT4 cells transfected with GTRAP4-41 and GTRAP4-48 were grown in a monolayer on 6-well plates in MEM supplemented with 10% fetal bovine serum and L-glutamine. Assays were conducted about 72 h after transfection using the method of Davis (Davis et al., J Neurosci. 18, 2475-2485 (1998)). […] Glutamate transport was measured by methods described herein.

GTRAP3-18 = experiment: retinoic acid regulation of GTRAP3-18 and EAAC1-mediated glutamate transport in HEK293 cells; type: cell-based
Description: Human GTRAP3-18 (JWA protein) was originally identified as a retinoic acid responsive gene. […] The loss of transport activity is not due to changes in EAAC1 protein level (FIG. 9A) or the cellular membrane localization of EAAC1 protein by retinoic acid as examined by fluorescent microscopy. To confirm that loss of transport activity was specifically due to GTRAP3-18 and not by other factors induced by retinoic acid or direct effects on EAAC1, a truncated EAAC1 cDNA, lacking the last 93 amino acids, was constructed. The truncation corresponded to the region used as bait in yeast two-hybrid screening, and was not able to interact with GTRAP3-18. Nevertheless, after transient expression in HEK293 cells, the truncated EAAC1 transported glutamate. […] Thus, the loss of transport activity by retinoic acid was the result of GTRAP3-18 induction. […] This could reflect lack of natural inhibition of the truncated protein EAAC1 by endogenous GTRAP3-18—results similar to the effects of GTRAP3-18 antisense treatment (FIG. 9E).

Rho = biological target: T3, Rho (Homo sapiens, UniProt P61586); experiment: guanine nucleotide exchange assay (GTPγS binding to small G proteins); type: biochemical; details: GST-RhoA, GST-Cdc42 and GST-Rac, 10 min at 30° C.
T3 construct: made in house; host or cells: bacterial cells
T3 sequence (P61586 whole entry): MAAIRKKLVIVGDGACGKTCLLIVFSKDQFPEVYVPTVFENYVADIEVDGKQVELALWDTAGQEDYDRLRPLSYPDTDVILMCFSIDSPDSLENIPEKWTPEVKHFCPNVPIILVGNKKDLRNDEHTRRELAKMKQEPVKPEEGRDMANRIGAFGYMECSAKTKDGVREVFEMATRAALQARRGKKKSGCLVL
Method: Guanine nucleotide exchange assay. Small G proteins GST-RhoA, GST-CDC42 and GST-Rac were expressed in bacterial cells and affinity purified to ˜80% purity using a glutathione column. Twenty pmoles of each protein were incubated with 100 pmoles GTPγS for 10 min at 30° C. with varying concentrations of full-length GTRAP4-48 or p115. The binding reactions were filtered through BA-85 nitrocellulose and the amount of GTPγS bound to small G protein was quantitated by scintillation counting of the dried filters. The amount of GTPγS that bound to GST-RhoA, GST-Cdc42 and GST-Rac in the presence of full-length GTRAP4-48 or p115 was measured.

Molecule: GTRAP4-41: glutamate transporter 4 associated protein, 2,388 amino acids (SEQ ID NO:2), 87% identity with β-spectrin III
- EAAT4 protein remaining (EAAT4 [1]): 81±2%
- cerebellar glutamate uptake (EAAT4 [2]): elevated
- binding to GST-EAAT4 fusion protein (GST-EAAT4): bind
- Km (EAAT4 [3]; GTRAP co-expressed with EAAT4, EAAT4 alone 7 (GTRAP41 experiment) or 10 (GTRAP48 experiment)): 11 µM
- Vmax of glutamate uptake (EAAT4 [3]; GTRAP co-expressed with EAAT4, EAAT4 alone 222 (GTRAP41 experiment) or 208 (GTRAP48 experiment)): 605 pmol/mg/min
- increase in glutamate transport (EAAT4 [3]; HEK-rEAAT4 cells transfected with the GTRAP, vs vector alone): two

Molecule: CC1=C(/C=C/C(C)=C/C=C/C(C)=C/C(=O)O)C(C)(C)CCC1 [Retinoic acid, retinoic acid]
- non-toxic dose range (GTRAP3-18): 1 to 10 µM

B1: p115: RhoGEF that selectively activates Rho (protein)
chain: MEDFARGAASPGPSRPGLVPVSIIGAEDEDFENELETNSEEQNSQFQSLEQVKRRPAHLMALLQHVALQFEPGPLLCCLHADMLGSLGPKEAKKAFLDFYHSFLEKTAVLRVPVPPNVAFELDRTRADLISEDVQRRFVQEVVQSQQVAVGRQLEDFRSKRLMGMTPWEQELAQLEAWVGRDRASYEARERHVAERLLMHLEEMQHTISTDEEKSAAVVNAIGLYMRHLGVRTKSGDKKSGRNFFRKKVMGNRRSDEPAKTKKGLSSILDAARWNRGEPQVPDFRHLKAEVDAEKPGATDRKGGVGMPSRDRNIGAPGQDTPGVSLHPLSLDSPDREPGADAPLELGDSSPQGPMSLESLAPPESTDEGAETESPEPGDEGEPGRSGLELEPEEPPGWRELVPPDTLHSLPKSQVKRQEVISELLVTEAAHVRMLRVLHDLFFQPMAECLFFPLEELQNIFPSLDELIEVHSLFLDRLMKRRQESGYLIEEIGDVLLARFDGAEGSWFQKISSRFCSRQSFALEQLKAKQRKDPRFCAFVQEAESRPRCRRLQLKDMIPTEMQRLTKYPLLLQSIGQNTEEPTEREKVELAAECCREILHHVNQAVRDMEDLLRLKDYQRRLDLSHLRQSSDPMLSEFKNLDITKKKLVHEGPLTWRVTKDKAVEVHVLLLDDLLLLLQRQDERLLLKSHSRTLTPTPDGKTMLRPVLRLTSAMTREVATDHKAFYVLFTWDQEAQIYELVAQTVSERKNWCALITETAGSLKVPAPASRPKPRPSPSSTREPLLSSSENGNGGRETSPADARTERILSDLLPFCRPGPEGQLAATALRKVLSLKQLLFPAEEDNGAGPPRDGDGVPGGGPLSPARTQEIQENLLSLEETMKQLEELEEEFCRLRPLLSQLGGNSVPQPGCT
- guanine nucleotide exchange activity (Rho): specific guanine nucleotide exchange activity for Rho
